Results taken from paper doi:10.1101/596171.

Biological target: T1, HIS-GST-Nxf3 (66-336), RRM-LRR domain (Drosophila melanogaster, UniProt Q8IQK4 66-336)
T1 sequence: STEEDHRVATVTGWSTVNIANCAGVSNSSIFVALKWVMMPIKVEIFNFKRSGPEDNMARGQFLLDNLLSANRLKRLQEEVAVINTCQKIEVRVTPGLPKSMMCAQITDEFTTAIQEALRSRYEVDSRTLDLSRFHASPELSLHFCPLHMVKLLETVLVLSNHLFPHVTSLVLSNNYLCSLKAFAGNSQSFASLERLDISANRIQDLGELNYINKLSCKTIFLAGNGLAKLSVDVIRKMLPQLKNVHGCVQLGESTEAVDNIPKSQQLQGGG
Assay: EMSA

B1: 35 nt ssRNA (ssRNA)
RNA: CUCAUCUUGGUCGUACGCGGAAUAGUUUAAACUGU
B1: binds.
